What was measured:
Test in all cases: GST fusion protein interaction assay
Details in all cases: 35S-labeled IVTT protein as prey
GST-hMSH2 = molecular target: T1, GST-hMSH2 (Homo sapiens, UniProt P43246); assay type: binding
T1 construct: made in house; host or cells: E. coli (XL-blue), pGEX
Method: (§1) An overnight culture of E. coli XL-blue cells which harbored pGEX-hMSH(X) (i.e. ‘X’ being 2, 3, or 6) was grown in LB with […] ampicillin. 50 milliliter of Luria broth containing ampicillin was inoculated with 1 milliliter of the overnight culture, and the culture was incubated until the optical density, as assessed at 600 nanometers, was about 0.5. IPTG was added to a final concentration of 0.1 millimolar, and the culture container placed in a shaker at 30° C. for 2 hours to generate induced cells. […] GST-fusion protein levels were quantified as described herein. […] GST-fusion protein expression levels were quantitated by Coomassie Brilliant Blue staining of protein separated by SDS-PAGE gels, using BSA as a standard.
(§2) In vitro transcription and translation (IVTT) reactions involving ^35S-Methionine were performed with pET-hMSH(Y) (i.e. where ‘Y’ was 2, 3, or 6) using purified DNA according to the manufacturers recommendations. […] This value was calculated using the specific activity of ^35 S-Methionine, correcting for the number of methionine residues in each IVTT construct and using SDS-PAGE and a Molecular Dynamics Phosphorlmager device equipped with ImageQuant software (Sunnyvale, Calif.). […]

GST-hMSH6 = molecular target: T2, GST-hMSH6 (Homo sapiens, UniProt P52701); assay type: binding
T2 construct: GST fusion proteins which comprised either full length hMSH3 or full length hMSH6; made in house; host or cells: E. coli (XL-blue), pGEX
T2 sequence (P52701 whole entry, the tested form may be a part): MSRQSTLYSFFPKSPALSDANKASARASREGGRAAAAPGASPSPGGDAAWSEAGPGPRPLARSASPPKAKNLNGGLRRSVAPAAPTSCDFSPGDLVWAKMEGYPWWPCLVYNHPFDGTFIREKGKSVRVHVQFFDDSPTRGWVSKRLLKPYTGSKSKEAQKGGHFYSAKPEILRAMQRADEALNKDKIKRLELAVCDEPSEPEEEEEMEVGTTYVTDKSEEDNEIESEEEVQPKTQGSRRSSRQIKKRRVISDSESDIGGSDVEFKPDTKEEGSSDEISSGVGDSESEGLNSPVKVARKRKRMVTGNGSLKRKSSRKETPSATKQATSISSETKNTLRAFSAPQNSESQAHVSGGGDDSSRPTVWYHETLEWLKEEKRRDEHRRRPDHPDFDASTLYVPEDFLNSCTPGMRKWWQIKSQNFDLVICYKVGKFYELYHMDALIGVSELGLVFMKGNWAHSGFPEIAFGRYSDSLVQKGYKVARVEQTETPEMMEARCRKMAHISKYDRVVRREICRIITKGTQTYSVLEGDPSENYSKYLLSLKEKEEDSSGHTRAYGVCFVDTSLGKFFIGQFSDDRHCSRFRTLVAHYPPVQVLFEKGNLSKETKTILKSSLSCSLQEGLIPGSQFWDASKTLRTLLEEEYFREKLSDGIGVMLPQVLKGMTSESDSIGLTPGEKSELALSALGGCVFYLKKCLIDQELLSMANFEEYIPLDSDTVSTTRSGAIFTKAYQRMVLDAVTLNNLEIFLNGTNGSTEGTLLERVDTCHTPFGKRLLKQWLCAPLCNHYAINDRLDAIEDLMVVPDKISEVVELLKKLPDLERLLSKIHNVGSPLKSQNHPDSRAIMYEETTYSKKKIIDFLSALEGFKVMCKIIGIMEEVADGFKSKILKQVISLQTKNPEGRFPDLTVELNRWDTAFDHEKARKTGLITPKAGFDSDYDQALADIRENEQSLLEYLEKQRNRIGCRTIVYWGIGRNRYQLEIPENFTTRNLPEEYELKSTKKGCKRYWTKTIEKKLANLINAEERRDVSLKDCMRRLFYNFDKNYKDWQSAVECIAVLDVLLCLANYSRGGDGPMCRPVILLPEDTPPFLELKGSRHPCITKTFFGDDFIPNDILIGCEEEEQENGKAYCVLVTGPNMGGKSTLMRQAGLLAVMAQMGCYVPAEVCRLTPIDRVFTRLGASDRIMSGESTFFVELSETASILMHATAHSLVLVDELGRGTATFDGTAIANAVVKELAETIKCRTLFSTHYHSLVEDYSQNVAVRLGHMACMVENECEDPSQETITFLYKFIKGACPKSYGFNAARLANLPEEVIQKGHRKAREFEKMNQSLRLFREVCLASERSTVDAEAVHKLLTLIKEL
Method: as §1, §2

GST-hMSH3 = assay type: binding, human
Method: as §1, §2

T1 sequence (P43246 whole entry): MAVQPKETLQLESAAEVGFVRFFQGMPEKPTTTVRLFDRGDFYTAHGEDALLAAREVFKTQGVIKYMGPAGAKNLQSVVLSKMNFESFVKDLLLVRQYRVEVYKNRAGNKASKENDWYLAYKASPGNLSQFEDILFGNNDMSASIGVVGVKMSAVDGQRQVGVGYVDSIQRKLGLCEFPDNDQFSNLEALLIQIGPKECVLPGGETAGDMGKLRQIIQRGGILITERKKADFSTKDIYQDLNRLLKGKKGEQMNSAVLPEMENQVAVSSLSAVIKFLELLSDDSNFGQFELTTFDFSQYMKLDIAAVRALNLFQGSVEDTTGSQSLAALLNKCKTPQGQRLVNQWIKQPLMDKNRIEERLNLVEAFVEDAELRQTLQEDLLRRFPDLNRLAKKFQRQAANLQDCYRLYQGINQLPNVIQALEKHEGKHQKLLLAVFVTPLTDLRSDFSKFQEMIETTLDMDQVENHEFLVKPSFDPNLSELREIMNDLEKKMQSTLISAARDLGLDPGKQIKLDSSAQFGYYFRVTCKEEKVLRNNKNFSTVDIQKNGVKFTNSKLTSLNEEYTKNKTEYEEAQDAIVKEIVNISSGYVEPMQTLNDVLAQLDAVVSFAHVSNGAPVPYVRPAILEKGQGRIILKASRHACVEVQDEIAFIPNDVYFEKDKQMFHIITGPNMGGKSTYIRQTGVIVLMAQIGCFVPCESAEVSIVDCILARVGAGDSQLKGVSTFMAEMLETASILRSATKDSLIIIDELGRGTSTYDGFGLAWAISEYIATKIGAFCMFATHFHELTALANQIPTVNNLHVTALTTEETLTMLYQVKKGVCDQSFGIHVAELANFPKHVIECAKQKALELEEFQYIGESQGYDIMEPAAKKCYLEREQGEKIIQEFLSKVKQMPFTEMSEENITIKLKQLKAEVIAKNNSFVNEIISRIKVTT

B1: hMSH5: human MutS homolog, putative 834-amino-acid protein encoded by clone b29 (SEQ ID NO: 29) (protein)
chain: MASLGANPRRTPQGPRPGAASSGFPSPAPVPGPREAEEEEVEEEEELAEIHLCVLWNSGYLGIAYYDTSDSTIHFMPDAPDHESLKLLQRVLDEINPQSVVTSAKQDENMTRFLGKLASQEHREPKRPEIIFLPSVDFGLEISKQRLLSGNYSFIPDAMTATEKILFLSSIIPFDCLLTVRALGGLLKFLGRRRIGVELEDYNVSVPILGFKKFMLTHLVNIDQDTYSVLQIFKSESHPSVYKVASGLKEGLSLFGILNRCHCKWGEKLLRLWFTRPTHDLGELSSRLDVIQFFLLPQNLDMAQMLHRLLGHIKNVPLILKRMKLSHTKVSDWQVLYKTVYSALGLRDACRSLPQSIQLFRDIAQEFSDDLHHIASLIGKVVDFEGSLAENRFTVLPNIDPEIDEKKRRLMGLPSFLTEVARKELENLDSRIPSCSVIYIPLIGFLLSIPRLPSMVEASDFEINGLDFMFLSEEKLHYRSARTKELDALLGDLHCEIRDQETLLMYQLQCQVLARAAVLTRVLDLASRLDVLLALASAARDYGYSRPRYSPQVLGVRIQNGRHPLMELCARTFVPNSTECGGDKGRVKVITGPNSSGKSIYLKQVGLITFMALVGSFVPAEEAEIGAVDAIFTRIHSCESISLGLSTFMIDLNQVAKAVNNATAQSLVLIDEFGKGTNTVDGLALLAAVLRHWLARGPTCPHIFVATNFLSLVQLQLLPQGPLVQYLTMETCEDGNDLVFFYQVCEGVAKASHASHTAAQAGLPDKLVARGKEVSDLIRSGKPIKPVKDLLKKNQMENCQTLVDKFMKLDLEDPNLDLNVFMSQEVLPAATSIL
modifications: left off: a dimerising Fc or GST; large carriers; small tags and cut ends
did not interact: interaction with GST-hMSH2 fusion protein (GST-hMSH2) | interaction with GST-hMSH6 fusion protein (GST-hMSH6) | interaction with GST-hMSH3 fusion protein (GST-hMSH3)

Source: patent US20020058275A1, “Compositions, kits, and methods for effecting adenine nucleotide modulation of DNA mismatch recognition proteins” (Thomas Jefferson University, priority 1997, published 2002)
